The subject of this data set is T1, TetR1 (C_22735) (Pseudomonas syringae pv. actinidiae biovar 3 strain S26 (M228)), ORF:bd32bde6.
T1 sequence: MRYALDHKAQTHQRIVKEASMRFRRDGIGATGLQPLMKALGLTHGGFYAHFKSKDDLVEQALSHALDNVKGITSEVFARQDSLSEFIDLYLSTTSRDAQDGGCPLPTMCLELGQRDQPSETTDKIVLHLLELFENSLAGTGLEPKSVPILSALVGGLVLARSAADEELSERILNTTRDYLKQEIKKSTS
The data set is described as follows: EMSA. The note with it: LightShift EMSA Optimization and Control kit (Thermo) per manufacturer, 100 ng probe per reaction, varied protein; 2 uL of 1 mg/mL Myc.A7 for supershift ….

“TTGAGTCGAGGATCACAATCTTCTGAAACATGGGCTTACCCTGATTTAATGGTGTGCAAGCCCTATAGCGATAACCATGCCAGCTTAAAAATATAAATAAGCCACTGATTTATAACGATATTTTAAAATATGAAATCCTTTGCAATACAAAACTTTGCGCAAACCGTTTTTTGCCACAACAGCTTTTGGCACAAAAACATCGGCCAGCTTCGCAAGGGAACTGATCCGGGACCGTGACCCACTCAGCGAACATAACCCGGCT (double strand) [hrpL upstream probe (262 bp)]”: the binding result was “binds”.

The values are drawn from publication PMC12285254.
